The source of these data is patent US20110002937A1 (THOMAS JEFFERSON UNIVERSITY, published 2011).

As a reminder, the Kd is the equilibrium constant for the complex coming apart. The kon is the rate constant with which the complex forms.

In the experiment the target is recombinant 50 kD C-terminal BoNT/A domain (HC50A) (Clostridium botulinum, UniProt P0DPI0 871-1296).
Chain of recombinant 50 kD C-terminal BoNT/A domain (HC50A) (P0DPI0 871-1296 limits assumed): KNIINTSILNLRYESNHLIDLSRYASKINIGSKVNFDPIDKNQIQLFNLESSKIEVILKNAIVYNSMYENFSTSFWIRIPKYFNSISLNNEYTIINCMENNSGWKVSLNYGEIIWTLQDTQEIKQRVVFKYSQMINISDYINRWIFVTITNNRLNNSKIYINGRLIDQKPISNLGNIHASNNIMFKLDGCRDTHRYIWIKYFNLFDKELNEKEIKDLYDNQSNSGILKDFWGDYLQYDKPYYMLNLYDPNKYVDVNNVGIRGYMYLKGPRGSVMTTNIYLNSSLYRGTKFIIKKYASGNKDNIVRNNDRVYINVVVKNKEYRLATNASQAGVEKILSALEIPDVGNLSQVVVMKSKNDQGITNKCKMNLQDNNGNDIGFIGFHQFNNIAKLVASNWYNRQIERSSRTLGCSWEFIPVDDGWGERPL

B1: 6A antibody (human monoclonal IgG secreted by hybridoma 6A, ATCC accession no. PTA-8870) (antibody, V domains shown)
VH: EVQLVESGGGVVKPGGSLRLSCTAFGFTFEDFGMHWVRQAPGKGLEWVSLVSGEGGSKYYADSVKGRFTISRDNKKHSLYLHMNSLKTEDTALYYCAKDVWTYHYDSSGYQYYYGMDVWGQGTTVTVSS
VL: QEPAVSVALGQTVRITCQGDSLRSYSASWYQQRPGQAPLFVMYGKDKRPSGIPDRFSGSASGNTASLTITGAQAEDEADYYCNCRDSSNQYWIFGGGTKVTVL
As for B1, the Kd was found to be 6.9 pM and the kon is 440000 M⁻¹ s⁻¹.
